Measured values taken from PMC4499147.

Target: RNF168 (UniProt Q8IYW5)
Assay: anti-HA co-IP, FLAG blot
Settings: reference: wild-type HA-LSD1

Row | binding against the reference (sites S131) | binding against the reference (sites S137) | Substance
1 | weaker |  | LSD1 (from UniProt O60341) S131A
2 |  | weaker | LSD1 (from UniProt O60341) S137A
